Experimental findings from US8563314 are described below.

Experiment in all cases: cell_activity
For one data set, the system named is ZFN 25013 (synthetic). The following applies: pair with 12942, PBMC, 37C day 3.
Another data set deals with ZFN 25011 (synthetic). The following applies: pair with 12942, PBMC, 37C day 3.
The next data set has as its system ZFN 25027 (synthetic). The following applies: pair with 12942, PBMC, 37C day 3.
The subject of another data set is ZFN 25023 (synthetic). The conditions noted are these: pair with 12942, PBMC, 37C day 3.
For another data set, the system named is ZFN 25036 (synthetic). The following applies: pair with 12942, PBMC, 37C day 3; helices printed identical to 25031.
The test system of the next data set is ZFN 25032 (synthetic). The conditions noted are these: pair with 12942, PBMC, 37C day 3.
The test system of the next data set is ZFN 25017 (synthetic). The following applies: pair with 12942, PBMC, 37C day 3.
Another data set has as its system ZFN 25031 (synthetic). The conditions noted are these: pair with 12942, PBMC, 37C day 3.
The test system of another data set is ZFN 25014 (synthetic). The conditions noted are these: pair with 12942, PBMC, 37C day 3.
For another data set, the system named is ZFN 25029 (synthetic). The following applies: pair with 12942, PBMC, 37C day 3.
In a further data set the test system is ZFN 25015 (synthetic). The following applies: pair with 12942, PBMC, 37C day 3; helices printed identical to 25014.
Another data set relates to ZFN 25030 (synthetic). The following applies: pair with 12942, PBMC, 37C day 3; F3 printed RPMHUTN.
The subject of another data set is ZFN 25016 (synthetic). The conditions noted are these: pair with 12942, PBMC, 37C day 3.
The next data set deals with ZFN 25028 (synthetic). The following applies: pair with 12942, PBMC, 37C day 3.
A further data set concerns ZFN 25040 (synthetic). The conditions noted are these: pair with 12942, PBMC, 37C day 3.
For a further data set, the system named is ZFN 25005 (synthetic). The conditions noted are these: pair with 12942, PBMC, 37C day 3.
Another data set relates to ZFN 25034 (synthetic). The conditions noted are these: pair with 12942, PBMC, 37C day 3.
The test system of another data set is ZFN 18759 (synthetic). The following applies: pair with 12942, PBMC, 37C day 3.
Another data set deals with ZFN 25010 (synthetic). The conditions noted are these: pair with 12942, PBMC, 37C day 3.
In another data set the test system is ZFN 25041 (synthetic). The following applies: pair with 12942, PBMC, 37C day 3.
In another data set the test system is ZFN 25006 (synthetic). The following applies: pair with 12942, PBMC, 37C day 3.
The test system of a further data set is ZFN 25025 (synthetic). The following applies: pair with 12942, PBMC, 37C day 3.
The subject of the next data set is ZFN 25012 (synthetic). The conditions noted are these: pair with 12942, PBMC, 37C day 3.
A further data set relates to ZFN 25022 (synthetic). The following applies: pair with 12942, PBMC, 37C day 3.
A further data set relates to ZFN 12942 (synthetic). The following applies: pair with 12947, day 3, K562.
Another data set has as its system ZFN 12971 (synthetic). The following applies: pair with 12934, day 3, K562.
The next data set relates to ZFN 12972 (synthetic). The following applies: pair with 12934, day 3, K562.
The next data set deals with ZFN 12934 (synthetic). The following applies: pair with 12971 or 12972, day 3, K562.

For the sequence “CAGTCGTCTGGGCGGTGCT (double strand) [PD1 exon 1 18759/250xx site]”, the activity was 3.7 % NHEJ with ZFN 25013 (synthetic); 3.1 % NHEJ with ZFN 25011 (synthetic); 6 % NHEJ in the data set with ZFN 25027 (synthetic); 3.1 % NHEJ in the data set on ZFN 25023 (synthetic); 8.3 % NHEJ with ZFN 25036 (synthetic); 6.7 % NHEJ with ZFN 25032 (synthetic). Moreover, the activity in the data set on ZFN 25017 (synthetic) worked out at 7.7 % NHEJ; in the data set on ZFN 25031 (synthetic), 9.4 % NHEJ; in the data set with ZFN 25014 (synthetic), 10.7 % NHEJ; with ZFN 25029 (synthetic) it was 8.1 % NHEJ; with ZFN 25015 (synthetic), 3.9 % NHEJ; with ZFN 25030 (synthetic) it was 7.6 % NHEJ. The activity in the data set with ZFN 25016 (synthetic) amounted to 7.3 % NHEJ; in the data set on ZFN 25028 (synthetic) it was 4.3 % NHEJ; in the data set with ZFN 25040 (synthetic), 6.1 % NHEJ; in the data set with ZFN 25005 (synthetic), 4.4 % NHEJ; in the data set with ZFN 25034 (synthetic), 4.9 % NHEJ; with ZFN 18759 (synthetic) it was 4.7 % NHEJ. Further, the activity in the data set with ZFN 25010 (synthetic) came to 4.9 % NHEJ; with ZFN 25041 (synthetic) it was 7.9 % NHEJ; in the data set on ZFN 25006 (synthetic), 2.9 % NHEJ; in the data set on ZFN 25025 (synthetic), 8.8 % NHEJ; with ZFN 25012 (synthetic), 5.9 % NHEJ; with ZFN 25022 (synthetic) it was 3.6 % NHEJ.
Sequence “CCAGGGCGCCTGTGGGATCTGCATGCCT (double strand) [PD1 exon 1 12942 site]” gave an activity in the data set with ZFN 12942 (synthetic) of 10 % NHEJ.
In the case of “CTGTGGACTATGGGGAGCTGGATTTCCA (double strand) [PD1 exon 5 12971/12972 site]”, the activity in the data set on ZFN 12971 (synthetic) and in the data set with ZFN 12972 (synthetic) was 11 % NHEJ throughout.
For the sequence “GAACACAGGCACGGCTGAGGGGTCCTCC (double strand) [PD1 exon 5 12934 site]”, in the data set with ZFN 12934 (synthetic), the activity was found to be 11 % NHEJ.
